According to paper PMC4558008, “Yeast Mitochondrial Transcription Factor Mtf1 Determines the Precision of Promoter-Directed Initiation of RNA Polymerase Rpo41” (PLoS ONE, 2015):

B1: Yeast mitochondrial transcription factor Mtf1 (His-Mtf1) (natural protein, UniProt P14908 2-341, looked up)
chain: SVPIPGIKDISKLKFFYGFKYLWNPTVYNKIFDKLDLTKTYKHPEELKVLDLYPGVGIQSAIFYNKYCPRQYSLLEKRSSLYKFLNAKFEGSPLQILKRDPYDWSTYSNLIDEERIFVPEVQSSDHINDKFLTVANVTGEGSEGLIMQWLSCIGNKNWLYRFGKVKMLLWMPSTTARKLLARPGMHSRSKCSVVREAFTDTKLIAISDANELKGFDSQCIEEWDPILFSAAEIWPTKGKPIALVEMDPIDFDFDVDNWDYVTRHLMILKRTPLNTVMDSLGHGGQQYFNSRITDKDLLKKCPIDLTNDEFIYLTKLFMEWPFKPDILMDFVDMYQTEHSG
notes: Mtf1, yeast mitochondrial transcription factor (theoretical 40 kDa); the printed PCR primers run from the codon after the start methionine (TCT GTT CCA ATC CCT: S V P I P) to the stop codon; Subcloned into pTrcHisC (Invitrogen) between NheI and HindIII; the vector's leader with the His tag precedes the protein; source: E. coli Rosetta cells, purified
B2: Yeast mitochondrial RNA polymerase Rpo41, wild-type (His-Rpo41) (enzyme)
chain: MLRPAYKSLVKTSLLQRRLISSKGSKLFKPSPDSTSTILISEDPLVTGSSPTSSTTSGIISSNDFPLFNKNRKDAKSSISYQWKNPSELEFDPFNKSHASAVTSMTRTRDVMQLWSLLEACLQSNLMKRAFSILESLYLVPEHKQRFIEDYNMYLNSFSKNDPNFPILKMNEKLTNDLETSFKDVNYNDKTLAIMIHHALNFHSTTSSMLLKPIISAYLKMSVNGIREIFSCLDILTISDLNILMNDLKVITPSQLPNSVRPILESLTLSPTPVNNIENEEGLNKVEAENDSKLHKASNASSDSIKKPSLDPLREVSFHGSTEVLSKDAEKLIAVDTIGMRVIRHTLLGLSLTPEQKEQISKFKFDANDNVLKMKPTKNDDNNNSINFFEIYNSLPTLEEKKAFESALNIFNQDRQKVLENRATEAARERWKHDFEEAKARGDISIEKNLNVKLWKWYNEMLPLVKEEINHCRSLLSEKLSDKKGLNKVDTNRLGYGPYLTLIDPGKMCVITILELLKLNSTGGVIEGMRTARAVISVGKAIEMEFRSEQVLKSESQAFRDVNKKSPEFKKLVQNAKSVFRSSQIEQSKILWPQSIRARIGSVLISMLIQVAKVSVQGVDPVTKAKVHGEAPAFAHGYQYHNGSKLGVLKIHKTLIRQLNGERLIASVQPQLLPMLVEPKPWVNWRSGGYHYTQSTLLRTKDSPEQVAYLKAASDNGDIDRVYDGLNVLGRTPWTVNRKVFDVVSQVWNKGEGFLDIPGAQDEMVLPPAPPKNSDPSILRAWKLQVKTIANKFSSDRSNRCDTNYKLEIARAFLGEKLYFPHNLDFRGRAYPLSPHFNHLGNDMSRGLLIFWHGKKLGPSGLKWLKIHLSNLFGFDKLPLKDRVAFTESHLQDIKDSAENPLTGDRWWTTADKPWQALATCFELNEVMKMDNPEEFISHQPVHQDGTCNGLQHYAALGGDVEGATQVNLVPSDKPQDVYAHVARLVQKRLEIAAEKGDENAKILKDKITRKVVKQTVMTNVYGVTYVGATFQIAKQLSPIFDDRKESLDFSKYLTKHVFSAIRELFHSAHLIQDWLGESAKRISKSIRLDVDEKSFKNGNKPDFMSSVIWTTPLGLPIVQPYREESKKQVETNLQTVFISDPFAVNPVNARRQKAGLPPNFIHSLDASHMLLSAAECGKQGLDFASVHDSYWTHASDIDTMNVVLREQFIKLHEVDLVLRLKEEFDQRYKNYVKIGKLKRSTDLAQKIIRIRKDLSRKLGRSTTLADEIYFEKKRQELLNSPLIEDRNVGEKMVTTVSLFEDITDLDALELENGGDENSGMSVLLPLRLPEIPPKGDFDVTVLRNSQYFFS
B3: Rpo41 ΔN393 (N-terminal 393 residues removed, 958 aa) (domain or fragment, yeast, UniProt P13433 394-1351, looked up)
chain: SLPTLEEKKAFESALNIFNQDRQKVLENRATEAARERWKHDFEEAKARGDISIEKNLNVKLWKWYNEMLPLVKEEINHCRSLLSEKLSDKKGLNKVDTNRLGYGPYLTLIDPGKMCVITILELLKLNSTGGVIEGMRTARAVISVGKAIEMEFRSEQVLKSESQAFRDVNKKSPEFKKLVQNAKSVFRSSQIEQSKILWPQSIRARIGSVLISMLIQVAKVSVQGVDPVTKAKVHGEAPAFAHGYQYHNGSKLGVLKIHKTLIRQLNGERLIASVQPQLLPMLVEPKPWVNWRSGGYHYTQSTLLRTKDSPEQVAYLKAASDNGDIDRVYDGLNVLGRTPWTVNRKVFDVVSQVWNKGEGFLDIPGAQDEMVLPPAPPKNSDPSILRAWKLQVKTIANKFSSDRSNRCDTNYKLEIARAFLGEKLYFPHNLDFRGRAYPLSPHFNHLGNDMSRGLLIFWHGKKLGPSGLKWLKIHLSNLFGFDKLPLKDRVAFTESHLQDIKDSAENPLTGDRWWTTADKPWQALATCFELNEVMKMDNPEEFISHQPVHQDGTCNGLQHYAALGGDVEGATQVNLVPSDKPQDVYAHVARLVQKRLEIAAEKGDENAKILKDKITRKVVKQTVMTNVYGVTYVGATFQIAKQLSPIFDDRKESLDFSKYLTKHVFSAIRELFHSAHLIQDWLGESAKRISKSIRLDVDEKSFKNGNKPDFMSSVIWTTPLGLPIVQPYREESKKQVETNLQTVFISDPFAVNPVNARRQKAGLPPNFIHSLDASHMLLSAAECGKQGLDFASVHDSYWTHASDIDTMNVVLREQFIKLHEVDLVLRLKEEFDQRYKNYVKIGKLKRSTDLAQKIIRIRKDLSRKLGRSTTLADEIYFEKKRQELLNSPLIEDRNVGEKMVTTVSLFEDITDLDALELENGGDENSGMSVLLPLRLPEIPPKGDFDVTVLRNSQYFFS
notes: printed length 958 aa (theoretical 111 kDa); source: E. coli Rosetta cells, purified (same method as His-Rpo41: Ni-NTA, Superdex 200 gel filtration)

Assays:
[1] = target: B3; assay: SEC; analytical gel filtration (Superdex), 1 μM Rpo41 (wild-type or ΔN393), 2 μM Mtf1 and 3 μM 20 bp duplex DNA with the 14S rRNA promoter; peak fractions on SDS-PAGE with densitometry; apparent Kd in the presence of DNA; 40 mM Tris-HCl pH 7.9, 150 mM NaCl, 0.1% Tween 20, 15% glycerol, 1 mM EDTA, 1 mM DTT; details: both partners purified
[2] = target: B3; assay: SEC; analytical gel filtration (Superdex), 2.8 μM Rpo41 (wild-type or ΔN393) with 5.6 μM Mtf1, no DNA; peak fractions on SDS-PAGE with densitometry; apparent Kd; 40 mM Tris-HCl pH 7.9, 150 mM NaCl, 0.1% Tween 20, 15% glycerol, 1 mM EDTA, 1 mM DTT; details: both partners purified
[3] = target: B1; assay: SEC; analytical gel filtration (Superdex), 1 μM Rpo41 (wild-type or ΔN393), 2 μM Mtf1 and 3 μM 20 bp duplex DNA with the 14S rRNA promoter; peak fractions on SDS-PAGE with densitometry; apparent Kd in the presence of DNA; 40 mM Tris-HCl pH 7.9, 150 mM NaCl, 0.1% Tween 20, 15% glycerol, 1 mM EDTA, 1 mM DTT; details: both partners purified
[4] = target: B1; assay: SEC; analytical gel filtration (Superdex), 2.8 μM Rpo41 (wild-type or ΔN393) with 5.6 μM Mtf1, no DNA; peak fractions on SDS-PAGE with densitometry; apparent Kd; 40 mM Tris-HCl pH 7.9, 150 mM NaCl, 0.1% Tween 20, 15% glycerol, 1 mM EDTA, 1 mM DTT; details: both partners purified
[5] = target: B1; assay: as above; details: both partners purified; remark: listed apart in the source
[6] = target: B1; assay: SEC; analytical gel filtration (Superdex), 1 μM Rpo41 (wild-type or ΔN393), 2 μM Mtf1 and 3 μM 20 bp duplex DNA with the 14S rRNA promoter; peak fractions on SDS-PAGE with densitometry; apparent Kd in the presence of DNA; 40 mM Tris-HCl pH 7.9, 150 mM NaCl, 0.1% Tween 20, 15% glycerol, 1 mM EDTA, 1 mM DTT; details: both partners purified; remark: listed apart in the source
[7] = target: B1; assay: cell-based or functional assay

## B1
[1]
  Kd: 600 nM
[2]
  Kd: 13000 nM

## B2
[3]
  Kd: 20 nM
[4]
  stoichiometry N: 1
[5]
  Kd: 4000 nM

## B3
[6]
  stoichiometry N: 1
[7]
  activity of the holoenzyme on the 70 bp linear 14S rRNA promoter template, relative to the wild-type enzyme: 20%
